{"source": "patent US20080292619", "biological_target": "recombinant human IGF-BP3 (GT2675 produced by GT) (UniProt P17936)", "sequence (P17936 28-291)": "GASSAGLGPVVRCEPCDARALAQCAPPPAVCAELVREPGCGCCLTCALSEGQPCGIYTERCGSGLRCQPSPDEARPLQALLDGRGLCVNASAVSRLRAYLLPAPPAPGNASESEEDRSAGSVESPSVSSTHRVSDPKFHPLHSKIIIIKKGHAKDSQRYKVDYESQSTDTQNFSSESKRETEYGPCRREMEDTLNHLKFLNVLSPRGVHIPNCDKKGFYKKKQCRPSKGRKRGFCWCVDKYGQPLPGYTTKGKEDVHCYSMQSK", "data": [{"substance": "human meltrin α-STFLAG after cleavage of the prodomain with thrombin (mature meltrin α having the prodomain deleted, 68 kDa)", "values": [{"measurement": "digestion of rhIGF-BP3 by meltrin α (SDS-PAGE and western blotting of rhIGF-BP3)", "value": "the band corresponding to rhIGF-BP3 disappeared in the case of the meltrin α having the prodomain cleaved"}]}]}
